The values that follow come from patent publication US20250171558A1 (published 2025).

Holding throughout (experiment): SPR; human
On the technique in general: SPR reads the build-up and loss of mass on a sensor chip optically.

Assay [1] has as its target Afucosylated.
Assay [2] has as its target SDIE.
The target in assay [3] is T1, human FcγRIIB (human, UniProt P31994 43-217).
T1 chain: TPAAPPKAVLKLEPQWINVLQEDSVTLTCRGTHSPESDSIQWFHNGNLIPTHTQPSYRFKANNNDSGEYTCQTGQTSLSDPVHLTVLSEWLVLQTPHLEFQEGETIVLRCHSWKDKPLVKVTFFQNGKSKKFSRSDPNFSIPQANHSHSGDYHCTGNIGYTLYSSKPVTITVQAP

B1: FcγRIIb (receptor)
chain: TPAAPPKAVLKLEPQWINVLQEDSVTLTCRGTHSPESDSIQWFHNGNLIPTHTQPSYRFKANNNDSGEYTCQTGQTSLSDPVHLTVLSEWLVLQTPHLEFQEGETIVLRCHSWKDKPLVKVTFFQNGKSKKFSRSDPNFSIPQANHSHSGDYHCTGNIGYTLYSSKPVTITVQAP
In general, Kd refers to a measure of binding affinity in units of concentration. Low readings indicate a tighter complex, high ones a looser complex. Consider B1, for which the figures for the Kd in assay [1] and in assay [2] were 5.88 µM and 665 nM, respectively.

B2: GAALIE (protein)
chain: ASTKGPSVFPLAPSSKSTSGGTAALGCLVKDYFPEPVTVSWNSGALTSGVHTFPAVLQSSGLYSLSSVVTVPSSSLGTQTYICNVNHKPSNTKVDKRVEPKSCDKTHTCPPCPAPELLAGPSVFLFPPKPKDTLMISRTPEVTCVVVDVSHEDPEVKFNWYVDGVEVHNAKTKPREEQYNSTYRVVSVLTVLHQDWLNGKEYKCKVSNKALPLPEEKTISKAKGQPREPQVYTLPPSREEMTKNQVSLTCLVKGFYPSDIAVEWESNGQPENNYKTTPPVLDSDGSFFLYSKLTVDKSRWQQGNVFSCSVMHEALHNHYTQKSLSLSPGK
Consider B2, for which, in assay [3], binding was put at a Kd of 19.6 µM.
